What was measured:
[1] = biological target: WT JR-FL gp120 (HIV-1 (isolate JR-FL)); assay: ELISA on coated gp120; EC50 by nonlinear regression
[2] = biological target: HIV-1 JR-CSF Env N241A (HIV-1 JR-CSF) (UniProt P20871); assay: cell-based or functional assay
[3] = biological target: Env of all HIV-1 pseudoviruses of the cross-clade 162-pseudovirus panel (n = 162); assay: cell-based or functional assay
[4] = biological target: HIV-1 JR-CSF Env N392Q (HIV-1 (isolate JR-CSF)) (UniProt P20871); assay: cell-based or functional assay
[5] = biological target: HIV-1 JR-CSF Env F317A (HIV-1 isolate JR-CSF) (UniProt P20871); assay: cell-based or functional assay
[6] = biological target: HIV-1 JR-CSF Env T303A (HIV-1 JR-CSF) (UniProt P20871); assay: cell-based or functional assay
[7] = biological target: Env of the clade F HIV-1 pseudoviruses of the cross-clade 162-pseudovirus panel (n = 15); assay: cell-based or functional assay
[8] = biological target: HIV-1 JR-CSF Env K421A (HIV-1 (isolate JR-CSF)) (UniProt P20871); assay: cell-based or functional assay
[9] = biological target: HIV-1 JR-CSF Env R419A (HIV-1 (isolate JR-CSF)) (UniProt P20871); assay: cell-based or functional assay
[10] = biological target: HIV-1 Env of isolate JR-CSF (HIV-1) (UniProt P20871); assay: cell-based or functional assay
[11] = biological target: HIV-1 JR-CSF Env K343A (HIV-1 isolate JR-CSF) (UniProt P20871); assay: cell-based or functional assay
[12] = biological target: Env of the clade G HIV-1 pseudoviruses of the cross-clade 162-pseudovirus panel (n = 15); assay: cell-based or functional assay
[13] = biological target: HIV-1 JR-CSF Env D325A (HIV-1 isolate JR-CSF) (UniProt P20871); assay: cell-based or functional assay
[14] = biological target: HIV-1 JR-CSF Env T388A (HIV-1 (isolate JR-CSF)) (UniProt P20871); assay: cell-based or functional assay
[15] = biological target: HIV-1 JR-CSF Env T394A (HIV-1 (isolate JR-CSF)) (UniProt P20871); assay: cell-based or functional assay
[16] = biological target: HIV-1 JR-CSF Env N262A (HIV-1 JR-CSF) (UniProt P20871); assay: cell-based or functional assay
[17] = biological target: HIV-1 JR-CSF Env T413A (HIV-1 (isolate JR-CSF)) (UniProt P20871); assay: cell-based or functional assay
[18] = biological target: HIV-1 JR-CSF Env S306A (HIV-1 JR-CSF) (UniProt P20871); assay: cell-based or functional assay
[19] = biological target: HIV-1 JR-CSF Env P313A (HIV-1 JR-CSF) (UniProt P20871); assay: cell-based or functional assay
[20] = biological target: HIV-1 JR-CSF Env N302A (HIV-1 JR-CSF) (UniProt P20871); assay: cell-based or functional assay
[21] = biological target: HIV-1 JR-CSF Env T320A (HIV-1 isolate JR-CSF) (UniProt P20871); assay: cell-based or functional assay
[22] = biological target: HIV-1 Env of isolate 92TH021 (HIV-1); assay: cell-based or functional assay
[23] = biological target: HIV-1 JR-CSF Env N339A (HIV-1 isolate JR-CSF) (UniProt P20871); assay: cell-based or functional assay
[24] = biological target: Env of the clade A HIV-1 pseudoviruses of the cross-clade 162-pseudovirus panel (n = 26); assay: cell-based or functional assay
[25] = biological target: HIV-1 JR-CSF Env N295A (HIV-1 JR-CSF) (UniProt P20871); assay: cell-based or functional assay
[26] = biological target: HIV-1 JR-CSF Env S199A (HIV-1 JR-CSF) (UniProt P20871); assay: cell-based or functional assay
[27] = biological target: HIV-1 JR-CSF Env I420A (HIV-1 (isolate JR-CSF)) (UniProt P20871); assay: cell-based or functional assay
[28] = biological target: Env of the clade AG HIV-1 pseudoviruses of the cross-clade 162-pseudovirus panel (n = 10); assay: cell-based or functional assay
[29] = biological target: HIV-1 JR-CSF Env I424A (HIV-1 (isolate JR-CSF)) (UniProt P20871); assay: cell-based or functional assay
[30] = biological target: HIV-1 JR-CSF Env T297A (HIV-1 JR-CSF) (UniProt P20871); assay: cell-based or functional assay
[31] = biological target: HIV-1 JR-CSF Env N301A (HIV-1 JR-CSF) (UniProt P20871); assay: cell-based or functional assay
[32] = biological target: HIV-1 Env of isolate MGRM-C-026 (HIV-1); assay: cell-based or functional assay
[33] = biological target: HIV-1 JR-CSF Env P299A (HIV-1 JR-CSF) (UniProt P20871); assay: cell-based or functional assay
[34] = biological target: HIV-1 JR-CSF Env N386A (HIV-1 isolate JR-CSF) (UniProt P20871); assay: cell-based or functional assay
[35] = biological target: HIV-1 JR-CSF Env N332A (HIV-1 isolate JR-CSF) (UniProt P20871); assay: cell-based or functional assay
[36] = biological target: HIV-1 JR-CSF Env E321aA (HIV-1 isolate JR-CSF) (UniProt P20871); assay: cell-based or functional assay
[37] = biological target: HIV-1 JR-CSF Env I323A (HIV-1 isolate JR-CSF) (UniProt P20871); assay: cell-based or functional assay
[38] = biological target: HIV-1 JR-CSF Env N276A (HIV-1 JR-CSF) (UniProt P20871); assay: cell-based or functional assay

B1: PGT-130 (antibody, V domains shown)
VH: QVQLQESGPGLVKPAETLSLTCSVSGESINTGHYYWGWVRQVPGKGLEWIGHIHYTTAVLHNPSLKSRLTIKIYTLRNQITLRLSNVTAADTAVYHCVRSGGDILYYYEWQKPHWFSPWGPGIHVTVSS
VL: QSALTQPPSASGSLGQSVTISCNGTSSDIGGWNFVSWYQQFPGRAPRLIIFEVNKRPSGVPGRFSGSKSGNSASLTVSGLQSDDEGQYFCSSLFGRWDVVFGGGTKLTVL
B1 gave an EC50 [1] of 0.2 µg/mL, a Fold IC50 increase relative to wild-type [2] of 0.6 fold and a Median IC50 against viruses neutralized with an IC50 <50 µg/ml [3] of 0.18 µg/mL. For the same binder, the Fold IC50 increase relative to wild-type [4] was 1.2 fold, the Fold IC50 increase relative to wild-type [5] was 17 fold and the Fold IC50 increase relative to wild-type [6] was > 250 fold. The Median IC50 against viruses neutralized with an IC50 <50 µg/ml [7] was 0.07 µg/mL, the Fold IC50 increase relative to wild-type [8] was 2.9 fold and the Fold IC50 increase relative to wild-type [9] was 2.6 fold. The Polyclonal Transfectant Neutralization Index (well 5147 N6) [10] was 1.24, the Primary Neutralization Index (B cell culture well 5147 N6) [10] was 19.3 and the Fold IC50 increase relative to wild-type [11] was 1.1 fold. For the same binder, the Median IC50 against viruses neutralized with an IC50 <50 µg/ml [12] was 4.14 µg/mL, the Fold IC50 increase relative to wild-type [13] was > 1000 fold and the Fold IC50 increase relative to wild-type [14] was 1 fold. For the same binder, the Fold IC50 increase relative to wild-type [15] was 1.2 fold, the Fold IC50 increase relative to wild-type [16] was 0.7 fold and the Fold IC50 increase relative to wild-type [17] was 0.6 fold. For the same binder, the Fold IC50 increase relative to wild-type [18] was 1.5 fold, the Fold IC50 increase relative to wild-type [19] was 0.3 fold and the Fold IC50 increase relative to wild-type [20] was 1.1 fold. For the same binder, the Fold IC50 increase relative to wild-type [21] was 0.9 fold, the Polyclonal Transfectant Neutralization Index (well 5147 N6) [22] was 4.2 and the Primary Neutralization Index (B cell culture well 5147 N6) [22] was 538. For the same binder, the Fold IC50 increase relative to wild-type [23] was 0.2 fold, the Median IC50 against viruses neutralized with an IC50 <50 µg/ml [24] was 0.09 µg/mL and the Fold IC50 increase relative to wild-type [25] was 0.7 fold. The Fold IC50 increase relative to wild-type [26] was 0.9 fold, the Fold IC50 increase relative to wild-type [27] was 9.8 fold and the Median IC50 against viruses neutralized with an IC50 <50 µg/ml [28] was 0.04 µg/mL. The Fold IC50 increase relative to wild-type [29] was 3.9 fold, the Fold IC50 increase relative to wild-type [30] was 0.9 fold and the Fold IC50 increase relative to wild-type [31] was > 1000 fold. The Polyclonal Transfectant Neutralization Index (well 5147 N6) [32] was 1.05, the Primary Neutralization Index (B cell culture well 5147 N6) [32] was 3 and the Fold IC50 increase relative to wild-type [33] was 0.8 fold. The Fold IC50 increase relative to wild-type [34] was 0.1 fold, the Fold IC50 increase relative to wild-type [35] was 0.6 fold and the Fold IC50 increase relative to wild-type [36] was 1.7 fold. The Fold IC50 increase relative to wild-type [37] was 0.8 fold and the Fold IC50 increase relative to wild-type [38] was 1 fold.

B2: PGT-131 (antibody, V domains shown)
VH: QVQLQESGPGLVKPSETLSLTCTVSGDSINTGHHYWGWVRQVPGKGPEWIAHIHYNTAVLHNPALKSRVTISIFTLKNLITLSLSNVTAADTAVYFCVRSGGDILYYIEWQKPHWFYPWGPGILVTVSS
VL: QSALTQPPSASGSLGQSLTISCSGTGSDIGSWNFVSWYQQFPGRAPNLIIFEVNRRRSGVPDRFSGSKSGNTASLTVSGLRSEDEAEYFCSSLSGRWDIVFGGGTKVTVL
Work on B2 yielded an EC50 [1] of 0.4 µg/mL, a Fold IC50 increase relative to wild-type [2] of 0.7 fold and a Median IC50 against viruses neutralized with an IC50 <50 µg/ml [3] of 0.52 µg/mL. The Fold IC50 increase relative to wild-type [4] was 0.4 fold, the Fold IC50 increase relative to wild-type [5] was 96 fold and the Fold IC50 increase relative to wild-type [6] was > 170 fold. It also gave a Median IC50 against viruses neutralized with an IC50 <50 µg/ml [7] of 0.55 µg/mL, a Fold IC50 increase relative to wild-type [8] of 11 fold and a Fold IC50 increase relative to wild-type [9] of 1.7 fold. It also gave a Primary Neutralization Index (B cell culture well 5136 H1) [10] of 6.2, a Fold IC50 increase relative to wild-type [11] of 1.1 fold and a Median IC50 against viruses neutralized with an IC50 <50 µg/ml [12] of 3.54 µg/mL. The Fold IC50 increase relative to wild-type [13] was > 170 fold, the Fold IC50 increase relative to wild-type [14] was 0.6 fold and the Fold IC50 increase relative to wild-type [15] was 0.9 fold. The Fold IC50 increase relative to wild-type [16] was 0.4 fold, the Fold IC50 increase relative to wild-type [17] was 0.6 fold and the Fold IC50 increase relative to wild-type [18] was 0.7 fold. The Fold IC50 increase relative to wild-type [19] was 0.52 fold, the Fold IC50 increase relative to wild-type [20] was 1 fold and the Fold IC50 increase relative to wild-type [21] was 4.5 fold. The Primary Neutralization Index (B cell culture well 5136 H1) [22] was 354, the Fold IC50 increase relative to wild-type [23] was 1 fold and the Median IC50 against viruses neutralized with an IC50 <50 µg/ml [24] was 0.09 µg/mL. It also gave a Fold IC50 increase relative to wild-type [25] of 2.1 fold, a Fold IC50 increase relative to wild-type [26] of 1.6 fold and a Fold IC50 increase relative to wild-type [27] of 153 fold. For the same binder, the Median IC50 against viruses neutralized with an IC50 <50 µg/ml [28] was 0.18 µg/mL, the Fold IC50 increase relative to wild-type [29] was 4.8 fold and the Fold IC50 increase relative to wild-type [30] was 1.2 fold. The Fold IC50 increase relative to wild-type [31] was > 170 fold, the Primary Neutralization Index (B cell culture well 5136 H1) [32] was 1.2 and the Fold IC50 increase relative to wild-type [33] was 2 fold. For the same binder, the Fold IC50 increase relative to wild-type [34] was 1.1 fold, the Fold IC50 increase relative to wild-type [35] was 0.5 fold and the Fold IC50 increase relative to wild-type [36] was 1.8 fold. It also gave a Fold IC50 increase relative to wild-type [37] of 38 fold and a Fold IC50 increase relative to wild-type [38] of 0.8 fold.
